Measurements reported in patent US20250144199A1 (UNIVERSITY OF MARYLAND COLLEGE PARK, published 2025).

Target: T1, tandem RBDs-Fc fusion protein (SARS-CoV-2 RBDs-Fc, FIG. 8C)
T1 construct: also called RBDs-IgG Fc; tandem RBD-Fc
Experiment: ELISA, biotinylated C1q on coated protein

B1: mouse C1q protein (Complement Technology Cat #M099), biotin-conjugated (other)
chain 1: EDVCRAPNGKDGAPGNPGRPGRPGLKGERGEPGAAGIRTGIRGFKGDPGESGPPGKPGNVGLPGPSGPLGDSGPQGLKGVKGNPGNIRDQPRPAFSAIRQNPMTLGNVVIFDKVLTNQESPYQNHTGRFICAVPGFYYFNFQVISKWDLCLFIKSSSGGQPRDSLSFSNTNNKGLFQVLAGGTVLQLRRGDEVWIEKDPAKGRIYQGTEADSIFSGFLIFPSA
chain 2: QSSCTGPPGIPGIPGVPGVPGSDGQPGTPGIKGEKGLPGLAGDLGEFGEKGDPGIPGTPGKVGPKGPVGPKGTPGPSGPRGPKGDSGDYGATQKVAFSALRTINSPLRPNQVIRFEKVITNANENYEPRNGKFTCKVPGLYYFTYHASSRGNLCVNLVRGRDRDSMQKVVTFCDYAQNTFQVTTGGVVLKLEQEEVVHLQATDKNSLLGIEGANSIFTGFLLFPDMDA
chain 3: SAGCYGIPGMPGMPGAPGKDGHDGLQGPKGEPGIPAVPGTRGPKGQKGEPGMPGHRGKNGPRGTSGLPGDPGPRGPPGEPGVEGRYKQKHQSVFTVTRQTTQYPEANALVRFNSVVTNPQGHYNPSTGKFTCEVPGLYYFVYYTSHTANLCVHLNLNLARVASFCDHMFNSKQVSSGGVLLRLQRGDEVWLSVNDYNGMVGIEGSNSVFSGFLLFPD
binding result: no binding (tested: C1q 2 µg/ml; 800-7.8 ng/well coated)
